# In patent US7838294B2, “Inhibitors of the JNK signal transduction pathway and methods of use” (University of Massachusetts, priority 1997, dated 2010):
# How the values were obtained:
# c-Myc activation domain = test: GAL4 luciferase reporter assay in CHO cells: c-Myc activation domain; type: cell-based, Chinese hamster; conditions: 48 hours post-transfection, FIG. 4A
# Experimental: (§1) In these experiments, CHO cells were cotransfected with constructs encoding the transcription factors and JIP-1 using previously described methods. Dérijard et al., supra; Sluss et al., supra; Gupta et al., supra. A luciferase reporter plasmid was used to monitor the expression of the transcription factors. Transfection efficiency was determined using a β-galactosidase expression vector. Constructs used in these experiments included GAL4 fusions with the c-myc, Sp1 and VP16 activation domains (described in Whitmarsh et al., Science, 269:403 (1995); Davis, Science, 269:403 (1995); Gille et al., Curr. Biol., 5:1191 (1995)). […]
# (§2) Transfected cells were activated by treatment with 10% (v/v) fetal calf serum, and luciferase and β-galactosidase activities were measured in cell lysates at 48 hours post-transfection. The data are presented as the ratio of luciferase activity (light units) to β-galactosidase activity (OD units) measured in the cell extracts (mean±SEM (n=3)), and are normalized to the luciferase activity detected in the absence of JBD (FIGS. 4A and 4B) or ATF2 (FIG. 4C).
# E1a activation domain = test: GAL4 luciferase reporter assay in CHO cells: E1a activation domain; type: cell-based, Chinese hamster; conditions: 48 hours post-transfection, FIG. 4A
# Sp1 activation domain = test: GAL4 luciferase reporter assay in CHO cells: Sp1 activation domain; type: cell-based, Chinese hamster; conditions: 48 hours post-transfection, FIG. 4A
# Experimental: as §1, §2
# VP16 activation domain = test: GAL4 luciferase reporter assay in CHO cells: VP16 activation domain; type: cell-based, Chinese hamster; conditions: 48 hours post-transfection, FIG. 4A
# Experimental: as §1, §2
# [1] = tested on: ATF2 transcriptional activity; test: GAL4 luciferase reporter assay in CHO cells: GAL4-ATF2; type: cell-based, Chinese hamster; conditions: GAL4-ATF2 reporter, CHO cells, FIG. 4C
# Experimental: In these experiments, CHO cells were cotransfected with constructs encoding the transcription factors and JIP-1 using previously described methods. Dérijard et al., supra; Sluss et al., supra; Gupta et al., supra. A luciferase reporter plasmid was used to monitor the expression of the transcription factors. Transfection efficiency was determined using a β-galactosidase expression vector. Constructs used in these experiments included GAL4 fusions with the c-myc, Sp1 and VP16 activation domains (described in Whitmarsh et al., Science, 269:403 (1995); Davis, Science, 269:403 (1995); Gille et al., Curr. Biol., 5:1191 (1995)). Other constructs used were GAL4-c-Jun, in which GAL4 is fused to c-Jun; GAL4-c-Jun (S63A/S73A), in which GAL4 is fused to a mutant c-Jun in which the serines at positions 63 and 73 have been changed to alanines; GAL4-ATF2, in which GAL4 is fused to wild type ATF2 (ATF2(Thr-69, 71)); GAL4-ATF2 (T69A/T71A) (ATF2(Ala-69/71)), in which GAL4 has been fused to a mutant ATF2 in which the […] at positions 69 and 71 have been changed to alanines; GAL4-Elk-1, in which GAL4 has been fused to Elk-1; and GAL4-Elk-1 (S383A), in which GAL4 has been fused to a mutant Elk-1 in which the serine at position 383 has been changed to an alanine. Gupta et al., EMBO J, 15:2760-2770 (1996); Raingeaud et al., Mol. Cell. Biol., 16:1247-1255 (1996); Whitmarsh et al. Science, 269:403-407 (1995).
# Insertional overlapping PCR, described in detail in Ho, supra, was used to construct expression vectors for the JNK binding domain (JBD; amino acid residues 127-281) of JIP-1 and for a mutant JIP-1 lacking the SH3 (amino acid residues 491-540) domain.
# as §2
# [2] = tested on: differentiated PC12 cells; test: NGF withdrawal-induced apoptosis of differentiated PC12 cells; type: cell-based; conditions: pCDNA3-Flag-JIP-1 (residues 127-281) transfection; 17 hours following NGF withdrawal; FIG. 5
# Text: The effect of JIP-1 on this biological response was investigated to determine whether JIP-1 inhibits the biological effects of the JNK signaling pathway. NGF withdrawal-induced apoptosis of differentiated PC12 cells was examined following transfection with the expression vectors pCDNA3 (control) and pCDNA3-Flag-JIP-1 (containing residues 127-281 of JIP-1) using methods described previously. Xia et al., Science, 270:1326 (1995). The percentage of apoptotic cells in the total transfected cell population was blind-scored and quantitated. This assay scores adherent cells with an apoptotic morphology at 17 hours following NGF withdrawal. Cells that have completed apoptosis are nonadherent and are not scored. Thus, while the cumulative extent of apoptosis is large (100%), lower numbers of apoptotic cells are detected at a single time point.
# JNK = JNK activation by v-ABL or BCR-ABL in transfected 293 cells (immune complex kinase assay); type: cell-based; conditions: co-expression in 293 cells; GST-Jun substrate
# Text: The BCR-ABL oncogene, which is associated with chronic myelogenous leukemia (CML), causes JNK activation in the absence of increased ERK activity. Raitano et al., Proc. Natl. Acad. Sci. USA, 92:11746 (1995). Oncogenic transformation by BCR-ABL may be mediated in part by the JNK signaling pathway. Since JIP-1 can inhibit JNK activity, the effect of JIP-1 expression on oncogenic transformation was examined. Plasmid vectors expressing v-ABL or BCR-ABL and Flag-tagged JBD (residues 127-281) of JIP-1 were used to transfect 293 cells. JNK activity was then measured in an immune complex kinase assay of lysates of the transfected 293 cells, using a polyclonal JNK antibody and GST-Jun as the substrate. […] JIP-1 can therefore inhibit BCR-ABL-mediated activation of JNK.
# [3] = tested on: primary mouse marrow cells (pre-B cells); test: Bone marrow transformation assay: pre-B cell transformation by BCR-ABL retrovirus; type: cell-based; conditions: bicistronic retrovirus, JBD in sense orientation (not anti-sense); day 10 post infection; FIG. 6
# Experimental: To examine the effect of JIP-1 on BCR-ABL-mediated cellular transformation, bone marrow transformation assays were performed using recombinant retroviruses packaged with 293T cells as described in Sawyers et al., J. Exp. Med., 181:307 (1995). Bicistronic retroviruses expressing BCR-ABL, alone, or in combination with the Flag-tagged JBD (residues 127-281) of JIP-1, were prepared by subcloning p185BCR-ABL into the ClaI site of pSRαTK, downstream of the internal TK promoter, to create pSRαMSVTKp185. The JBD was subcloned into the upstream EcoRI site in the sense and antisense orientations.
# The recombinant retroviruses were then used to infect primary mouse marrow cells, and the transformation of pre-B cells was monitored in culture. […] The data shown are derived from three independent experiments plated in triplicate. As expected, BCR-ABL caused pre-B cell transformation.
molecule,measurement,setting,value
"JBD: JNK binding domain of JIP-1, residues 127-281, expressed (Flag-tagged) in cells (protein, Flag tag) PKAESNQDPAPRSQGQGPGTGSGDTYRPKRPTTLNLFPQVPRSQDTLNNNSLGKKHSWQDRVSRSSSPLKTGEQTPPHEHICLSDELPPQGSPVPTQDRGTSTDSPCRRSAATQMAPPSGPPATAPGGRGHSHRDRIHYQADVRLEATEEIYLTP",reporter gene expression mediated by c-Myc activation domain,c-Myc activation domain,did not inhibit
same,reporter gene expression mediated by E1a activation domain,E1a activation domain,did not inhibit
same,reporter gene expression mediated by Sp1 activation domain,Sp1 activation domain,did not inhibit
same,reporter gene expression mediated by VP16 activation domain,VP16 activation domain,did not inhibit
same,JNK-regulated gene expression,[1],inhibition
same,apoptosis following NGF-withdrawal,[2],markedly reduced
same,constitutive JNK activation caused by v-ABL and BCR-ABL,JNK,blocked
same,pre-B cell transformation by BCR-ABL,[3],marked inhibition
